Km data for 1 protein are collected here from publication PMC3999857, “Periodic DNA patrolling underlies diverse functions of Pif1 on R-loops and G-rich DNA” (eLife, 2014).

Substrate in this data set: Nc1ncnc2c1ncn2[C@@H]1O[C@H](COP(=O)(O)OP(=O)(O)OP(=O)(O)O)[C@@H](O)[C@H]1O
The data set is described as follows: purified protein. The data set is classed as biochemical, Saccharomyces cerevisiae. The following applies: 3′-(dT)40 partial duplex DNA, monomer condition (10 nM Pif1 then wash), 5 mM MgCl2, 60 mM KCl, pH 7.5, 22 °C.

B1: Pif1 (Saccharomyces cerevisiae S288C) (protein)
chain: RSNNFIQAQLKHPSILSKEDLDLLSDSDDWEEPDCIQLETEKQEKKIITDIHKEDPVDKKPMRDKNVMNFINKDSPLSWNDMFKPSIIQPPQLISENSFDQSSQKKSRSTGFKNPLRPALKKESSFDELQNNSISQERSLEMINENEKKKMQFGEKIAVLTQRPSFTELQNDQDDSNLNPHNGVKVKIPICLSKEQESIIKLAENGHNIFYTGSAGTGKSILLREMIKVLKGIYGRENVAVTASTGLAACNIGGITIHSFAGIGLGKGDADKLYKKVRRSRKHLRRWENIGALVVDEISMLDAELLDKLDFIARKIRKNHQPFGGIQLIFCGDFFQLPPVSKDPNRPTKFAFESKAWKEGVKMTIMLQKVFRQRGDVKFIDMLNRMRLGNIDDETEREFKKLSRPLPDDEIIPAELYSTRMEVERANNSRLSKLPGQVHIFNAIDGGALEDEELKERLLQNFLAPKELHLKVGAQVMMVKNLDATLVNGSLGKVIEFMDPETYFCYEALTNDPSMPPEKLETWAENPSKLKAAMEREQSDGEESAVASRKSSVKEGFAKSDIGEPVSPLDSSVFDFMKRVKTDDEVVLENIKRKEQLMQTIHQNSAGKRRLPLVRFKASDMSTRMVLVEPEDWAIEDENEKPLVSRVQLPLMLAWSLSIHKSQGQTLPKVKVDLRRVFEKGQAYVALSRAVSREGLQVLNFDRTRIKAHQKVIDFYLTLSSAESAYKQLEADEQVKKRKLDYAPGPKYKAKSKSKSNSPAPISATTQSNNGIAAMLQRHSRKRFQLKKESNSNQVHSLVSDEPRGQDTEDHILE
notes: purified His6-tagged Pif1, purification as in Boule et al. 2005; monomer
Usually Km stands for the substrate concentration at which the rate is half of its maximum. For B1, the Km was found to be 110 ± 17 µM.
